Assay results as given in IntAct's records for PubMed 29611543.

Target: T1, trem2_human TREM2 (UniProt Q9NZC2)
T1 sequence: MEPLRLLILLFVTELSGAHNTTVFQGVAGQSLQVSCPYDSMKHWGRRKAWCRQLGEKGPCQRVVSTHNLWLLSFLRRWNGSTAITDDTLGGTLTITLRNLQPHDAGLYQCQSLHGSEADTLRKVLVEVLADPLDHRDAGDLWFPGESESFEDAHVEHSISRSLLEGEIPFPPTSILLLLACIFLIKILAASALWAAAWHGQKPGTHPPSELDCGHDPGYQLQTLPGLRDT

- effect of a mutation on the interaction: with no effect
Substance: Presenilin-1 (Homo sapiens) (from UniProt P49768) D385A
